Reference: patent US8889621B2, “Inhibiting binding of FGF23 to the binary FGFR-Klotho complex for the treatment of hypophosphatemia” (New York University, priority 2009, dated 2014)
Entries after “also recorded” stand apart in the source; their conditions may differ.

Experiments:
[1] = tested on: C57BL/6 mice; assay: Serum phosphate in C57BL/6 mice after IP injection; type: in vivo, mouse; details: two injections of 5 μg, healthy C57BL/6 mice
Procedure: The phosphaturic activity of […] was examined in ˜6-week old C57BL/6 mice by a published protocol (Goetz et al., “Molecular Insights into the Klotho-dependent, Endocrine Mode of Action of Fibroblast Growth Factor 19 Subfamily Members,” Mol Cell Biol 27(9):3417-3428 (2007), which is hereby incorporated by reference in its entirety). FGF23^28-251, FGF23^28-200, or vehicle were injected IP into the animals. Each mouse received two injections at 8 h intervals, of 5 μg of protein per injection. Before the first injection and 8 h after the second injection, blood was drawn by cheek-pouch bleeding and spun at 3,000×g for 10 min to obtain serum. Serum phosphate levels were determined using Phosphorus Liqui-UV reagent (Stanbio Laboratory).

[2] = tested on: tyrosine phosphorylation of FRS2α and downstream activation of MAP kinase cascade; assay: Phosphorylation of FRS2α and 44/42 MAP kinase in CHO Klotho cell line; type: cell-based
Procedure: Subconfluent HEK293-Klotho cells (Kurosu et al., “Regulation of Fibroblast Growth Factor-23 Signaling by Klotho,” J Biol Chem 281(10):6120-6123 (2006), which is hereby incorporated by reference in its entirety) were serum starved for 16 h and then stimulated for 10 min with either FGF23^28-251 (0.33 to 10 nM) or FGF23^180-251 (0.76 to 76.3 nM). In parallel experiments, cells were stimulated with FGF23^28-251 (1 nM) alone or with FGF23^28-251 (1 nM) mixed with increasing concentrations of either FGF23^180-251 (0.76 to 76.3 nM) or FGF23^180-205 (0.1 to 10 μM). Cell stimulation with FGF2 (2.9 nM) alone or FGF2 (2.9 nM) mixed with increasing concentrations of FGF23^180-251 (0.76 to 76.3 nM) served as controls. Similarly, subconfluent cells of a CHO cell line stably expressing Klotho (Imura et al., “Secreted Klotho Protein in Sera and CSF: Implication for Post-translational Cleavage in Release of Klotho Protein from Cell Membrane,” FEBS Lett 565(1-3):143-147 (2004), which is hereby incorporated by reference in its entirety) were treated with either FGF23^28-251 (0.067 to 20 nM) or FGF23^28-200 (0.04 to 12 nM). […]

[3] = tested on: binary FGFR-Klotho complex; assay: Pull-down / co-precipitation of FGF23 proteins with FGFR-Klotho complex; type: binding; details: HEK293-Klotho cell lysate
Procedure: A pull-down assay may also be used to confirm the existence of a protein:protein interaction (i.e. FGF23^180-251 binding to the binary FGFR-Klotho complex). One aspect of the present invention utilizes pull-down assays. These assays involved subconfluent cultures of a HEK293 cell line ectopically expressing the FLAG-tagged membrane-spanning form of murine Klotho, which were harvested and lysed. Cell lysate was incubated with FGF23^28-251, FGF23^28-200, FGF23^28-179, FGF23^180-251, or protein sample buffer, and binary complexes of Klotho and endogenous FGFR were isolated from cell lysate using anti-FLAG M2 agarose beads. […]
In parallel, subconfluent HEK293-Klotho cells (Kurosu et al., “Regulation of Fibroblast Growth Factor-23 Signaling by Klotho,” J Biol Chem 281(10):6120-6123 (2006), which is hereby incorporated by reference in its entirety) were transfected with expression vectors for V5-tagged FGFR1c, FGFR3c, or FGFR4 (Kurosu et al., “Regulation of Fibroblast Growth Factor-23 Signaling by Klotho,” J Biol Chem 281(10):6120-6123 (2006), which is hereby incorporated by reference in its entirety) and binding of FGF23 proteins/peptides to Klotho-FGFR complexes isolated from cell lysate was analyzed. […]

binary FGFR-Klotho complex, sequence (O35082 35-1014, one chain of several): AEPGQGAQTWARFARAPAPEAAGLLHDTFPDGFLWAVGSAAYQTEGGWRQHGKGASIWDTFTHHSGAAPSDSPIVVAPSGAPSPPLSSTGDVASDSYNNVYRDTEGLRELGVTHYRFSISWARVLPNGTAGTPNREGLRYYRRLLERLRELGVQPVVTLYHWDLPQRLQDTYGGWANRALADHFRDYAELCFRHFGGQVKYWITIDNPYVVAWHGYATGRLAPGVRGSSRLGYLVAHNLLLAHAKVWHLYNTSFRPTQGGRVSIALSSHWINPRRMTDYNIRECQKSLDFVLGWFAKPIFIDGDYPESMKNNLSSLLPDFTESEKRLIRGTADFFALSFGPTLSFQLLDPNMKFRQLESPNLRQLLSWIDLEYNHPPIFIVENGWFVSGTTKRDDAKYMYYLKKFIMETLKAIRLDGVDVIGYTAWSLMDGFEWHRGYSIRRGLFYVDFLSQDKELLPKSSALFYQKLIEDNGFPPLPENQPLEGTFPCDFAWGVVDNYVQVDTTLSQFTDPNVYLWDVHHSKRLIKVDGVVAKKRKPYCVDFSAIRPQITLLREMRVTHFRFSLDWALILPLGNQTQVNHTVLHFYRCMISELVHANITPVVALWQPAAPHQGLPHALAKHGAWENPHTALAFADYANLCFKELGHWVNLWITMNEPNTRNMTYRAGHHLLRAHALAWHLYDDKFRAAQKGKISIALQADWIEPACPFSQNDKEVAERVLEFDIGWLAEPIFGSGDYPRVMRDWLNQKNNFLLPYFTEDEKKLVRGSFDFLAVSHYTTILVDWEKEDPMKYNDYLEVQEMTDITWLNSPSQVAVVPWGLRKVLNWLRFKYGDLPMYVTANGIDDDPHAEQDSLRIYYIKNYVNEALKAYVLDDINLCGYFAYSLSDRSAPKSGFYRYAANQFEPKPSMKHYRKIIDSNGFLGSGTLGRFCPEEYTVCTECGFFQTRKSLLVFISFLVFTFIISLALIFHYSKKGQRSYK

B1: FGF23^28-200: C-terminally truncated FGF23 protein (A28 to T200), lacks the last 51 C-terminal amino acids (protein)
chain: ASPLLGSSWGGLIHLYTATARNSYHLQIHKNGHVDGAPHQTIYSALMIRSEDAGFVVITGVMSRRYLCMDFRGNIFGSHYFDPENCRFQHQTLENGYDVYHSPQYHFLVSLGRAKRAFLPGMNPPPYSQFLSRRNEIPLIHFNTPIPRQHTQSAEDDSERDPLNVLKPRARMT
- reduction of serum phosphate concentration (phosphaturic activity) [1]: nearly as effective as the full-length ligand; also recorded: exhibits phosphaturic activity
- induction of phosphorylation of FRS2α and activation of MAP kinase cascade [2]: at a dose comparable to that of FGF23^28-251
- co-precipitation with the binary FGFR-Klotho complex [3]: still retains the ability to co-immunoprecipitate
